This passage reports Kd results from article PMC11461981 (Scientific Reports, 2024).

Read-outs that look alike come from different tables or passages of the source.

One assay has as its target 14-3-3φ (Arabidopsis thaliana, UniProt P19456+P46077). Format: binding.
In assay [1] the target is FAM-labeled phosphopeptide derived from C-terminal AHA2 (FAM-TPSHYpTV) (Arabidopsis thaliana). As to the kind of experiment: fluorescence polarisation.
Assay [2] shares this target. As to the kind of experiment: fluorescence polarisation. This is another data set of the same source.
The target is the same in assay [3]. The experiment in a line: fluorescence polarisation. The source holds these as a separate data set.
The target is the same in assay [4]. The experiment in a line: fluorescence polarisation. This is another data set of the same source.

14-3-3φ, sequence (P46077 whole entry, other chains not shown): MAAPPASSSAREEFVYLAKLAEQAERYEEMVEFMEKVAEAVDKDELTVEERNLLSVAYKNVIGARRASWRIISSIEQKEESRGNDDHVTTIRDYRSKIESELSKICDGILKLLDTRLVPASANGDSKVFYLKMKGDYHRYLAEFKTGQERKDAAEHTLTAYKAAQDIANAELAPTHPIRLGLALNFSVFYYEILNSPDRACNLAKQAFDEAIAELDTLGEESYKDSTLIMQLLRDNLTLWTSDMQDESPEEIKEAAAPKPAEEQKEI

In the case of `C=CC(C)(C)OC[C@H]1O[C@H](O[C@@H]2C3=C([C@H](C)COC(C)=O)C[C@H](O)[C@]3(C)/C=C3/[C@@H](COC)CC[C@H]3[C@@H](C)[C@H]2O)[C@H](O)[C@@H](OC(C)=O)[C@@H]1O` [FC-A, Fusicoccin-A], the Kd on 14-3-3φ is 150 ± 30 nM.
For the molecule “recombinant Arabidopsis thaliana His-14-3-3φ (from UniProt P46077 1-267) (natural protein)”, the Kd in assay [1] amounted to 890 nM; in assay [2], 150 nM; in assay [3], 530 nM; in assay [4], 160 nM.

What is called Kd is the equilibrium constant for the complex coming apart. Lower therefore signals tighter binding.
